Patent publication CN113621079A

Assays:
[1] = target: CA724 胃癌抗原 (B72.3抗原); assay: ELISA, antigen coated at 100 ng/mL, HRP goat anti-mouse Fab secondary, OD450
[2] = target: CA724 胃癌抗原 (B72.3抗原); assay: direct ELISA, antigen coated at 100 ng/mL, pNPP substrate read through the attached ALP; plateau value
[3] = target: CA724 胃癌抗原 (B72.3抗原); assay: direct ELISA, antigen coated at 100 ng/mL, pNPP substrate read through the fused AP; still in linear range, no plateau

Fab抗体与碱性磷酸酶融合蛋白(Fab)2-AP (CA724-B72.3 Fab fused to calf intestinal alkaline phosphatase, Fab:AP monomer 1:1), sequence (light, form in doubt): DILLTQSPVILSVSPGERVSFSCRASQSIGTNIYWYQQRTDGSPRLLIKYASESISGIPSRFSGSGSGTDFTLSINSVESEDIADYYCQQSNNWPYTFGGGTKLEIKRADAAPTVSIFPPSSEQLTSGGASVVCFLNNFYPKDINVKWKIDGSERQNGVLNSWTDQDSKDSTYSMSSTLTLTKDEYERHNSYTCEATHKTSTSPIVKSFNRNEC

对照抗体化学标记ALP蛋白 (CA724-B72.3 antibody chemically labelled with alkaline phosphatase)
fold decrease of high-end antibody activity (against the original antibody / fusion protein) [1]: 1 倍
最高吸光值 (405nm) [2]: 0.8 OD405

Fab抗体与碱性磷酸酶融合蛋白(Fab)2-AP (CA724-B72.3 Fab fused to calf intestinal alkaline phosphatase, Fab:AP monomer 1:1)
吸光值 (405nm) [3]: 1.2 OD405
